Assay results: US20220119534A1 (DRAGONFLY THERAPEUTICS, published 2022)

Key:
[1] = biological target: T1, mFc-hNKG2D (human, UniProt P26718 73-216); test: SPR Biacore 8K 37 C; mFc-hNKG2D captured on anti-mFc chip, TriNKET as analyte; 1:1 kinetic fit; control, n=3
T1 construct: extracellular domain; Made in house (Dragonfly Tx); the order of tag and ECD follows the name mFc-hNKG2D; also called mFc-tagged human NKG2D; not shown: mouse Fc tag
T1 sequence (looked up): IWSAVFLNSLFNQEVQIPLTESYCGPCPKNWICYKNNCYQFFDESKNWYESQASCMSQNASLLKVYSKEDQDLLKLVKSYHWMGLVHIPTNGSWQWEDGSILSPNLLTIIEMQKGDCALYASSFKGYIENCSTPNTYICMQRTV

[2] = biological target: T2, Human CLEC12A-His (human, UniProt Q5QGZ9 65-265); test: SPR Biacore 8K 37 C; TriNKET captured on anti-hFc chip, hCLEC12A-His as analyte; 1:1 fit; control sample, n=2
T2 construct: Recombinant soluble protein made in house (Dragonfly Tx); The hCLEC12A spot of the HuProt array is written under this molecule as well; also called hCLEC12A-His; hCLEC12A; not shown: His tag
T2 sequence: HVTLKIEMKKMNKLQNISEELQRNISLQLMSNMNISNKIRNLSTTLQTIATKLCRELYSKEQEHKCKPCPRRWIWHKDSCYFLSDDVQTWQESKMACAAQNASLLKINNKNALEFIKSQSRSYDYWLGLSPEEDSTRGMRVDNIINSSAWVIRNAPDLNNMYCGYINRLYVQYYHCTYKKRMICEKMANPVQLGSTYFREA

[3] = biological target: T2, Human CLEC12A-His; test: SPR Biacore 8K 37 C; TriNKET captured on anti-hFc chip, hCLEC12A-His as analyte; 1:1 fit; after 2 wks 40 C at pH 5.0, n=2

- Kd [1]: 714 nM
- koff [1]: 0.146 s⁻¹
- kon [1]: 206000 M⁻¹ s⁻¹
- Kd [2]: 0.98 nM
- koff [2]: 0.000735 s⁻¹
- kon [2]: 750000 M⁻¹ s⁻¹
- Kd [3]: 1.01 nM
- koff [3]: 0.000871 s⁻¹
- kon [3]: 865000 M⁻¹ s⁻¹
B1: F3'-1602 TriNKET (bispecific antibody, human IgG1, kappa)
chain: QLQLQESGPGLVKPSETLSLTCTVSGFSLTNYGLHWIRQPPGKCLEWIGVIWSGGKTDYNPSLKSRVTISKDTSKNQFSLKLSSVQAADTAVYYCAKYDYDDSLDYWGQGTLVTVSSGGGGSGGGGSGGGGSGGGGSDIQMTQSPSSLSASVGDRVTITCHASQNINFWLSWYQQKPGKAPKLLIYEASNLHTGVPSRFSGSGSGTRFTLTISSLQPEDIATYYCQQSHSYPLTFGCGTKLEIKGSDKTHTCPPCPAPELLGGPSVFLFPPKPKDTLMISRTPEVTCVVVDVSHEDPEVKFNWYVDGVEVHNAKTKPREEQYNSTYRVVSVLTVLHQDWLNGKEYKCKVSNKALPAPIEKTISKAKGQPREPRVYTLPPCRDELTKNQVSLTCLVKGFYPSDIAVEWESNGQPENNYKTTPPVLVSDGSFTLYSKLTVDKSRWQQGNVFSCSVMHEALHNHYTQKSLSLSPG
heavy: EVQLVESGGGLVKPGGSLRLSCAASGFTFSSYSMNWVRQAPGKGLEWVSSISSSSSYIYYADSVKGRFTISRDNAKNSLYLQMNSLRAEDTAVYYCARGAPIGAAAGWFDPWGQGTLVTVSSASTKGPSVFPLAPSSKSTSGGTAALGCLVKDYFPEPVTVSWNSGALTSGVHTFPAVLQSSGLYSLSSVVTVPSSSLGTQTYICNVNHKPSNTKVDKKVEPKSCDKTHTCPPCPAPELLGGPSVFLFPPKPKDTLMISRTPEVTCVVVDVSHEDPEVKFNWYVDGVEVHNAKTKPREEQYNSTYRVVSVLTVLHQDWLNGKEYKCKVSNKALPAPIEKTISKAKGQPREPQVCTLPPSRDELTENQVSLTCLVKGFYPSDIAVEWESNGQPENNYKTTPPVLDSDGSFFLYSWLTVDKSRWQQGNVFSCSVMHEALHNHYTQKSLSLSPG
light: DIQMTQSPSSVSASVGDRVTITCRASQGISSWLAWYQQKPGKAPKLLIYAASSLQSGVPSRFSGSGSGTDFTLTISSLQPEDFATYYCQQGVSFPRTFGGGTKVEIKRTVAAPSVFIFPPSDEQLKSGTASVVCLLNNFYPREAKVQWKVDNALQSGNSQESVTEQDSKDSTYSLSSTLTLSKADYEKHKVYACEVTHQGLSSPVTKSFNRGEC
notes: Trispecific F3' format: CLEC12A scFv-Fc paired with NKG2D Fab-Fc; Stressed and control samples of the stability studies are the same molecule; also called AB0237
